Changes are numbered by the printed parent chain. Names may count otherwise.
Legend:
RSV F B S443P = target: T1, RSV F B S443P (RSV B); assay: FACS, % binding to RSV F B variants
T1 construct: whole, on cells; also called mutant S443P

RSV F B K68N-N208S = target: T2, RSV F B K68N-N208S (RSV B); assay: FACS, % binding to RSV F B variants
T2 construct: whole, on cells

RSV F B N208D = target: T3, RSV F B N208D (RSV B); assay: FACS, % binding to RSV F B variants
T3 construct: whole, on cells

RSV F B K68N-N201S = target: T4, RSV F B K68N-N201S (RSV B); assay: FACS, % binding to RSV F B variants
T4 construct: whole, on cells

RSV F B N208S = target: T5, RSV F B N208S (RSV B); assay: FACS, % binding to RSV F B variants
T5 construct: whole, on cells; also called mutant N208S

RSV F B, B Ref = target: T6, RSV F B, B Ref (RSV B); assay: FACS, % binding to RSV F B variants
T6 construct: whole, on cells

RSV F B N201S = target: T7, RSV F B N201S (RSV B); assay: FACS, % binding to RSV F B variants
T7 construct: whole, on cells

RSV F A G446E = target: T8, RSV F A G446E (RSV A, strain A2, UniProt P03420 26-574); assay: FACS, % binding to RSV F A variants
T8 construct: whole, on cells

RSV F A L203I = target: T9, RSV F A L203I (RSV A, strain A2, UniProt P03420 26-574); assay: FACS, % binding to RSV F A variants
T9 construct: whole, on cells

RSV F A, A2 Ref = target: T10, RSV F A, A2 Ref (RSV A, strain A2, UniProt P03420 26-574); assay: FACS, % binding to RSV F A variants
T10 construct: whole, on cells

RSV F A S443P-K445N = target: T11, RSV F A S443P-K445N (RSV A, strain A2, UniProt P03420 26-574); assay: FACS, % binding to RSV F A variants
T11 construct: whole, on cells

RSV-A F = target: T12, RSV-A F (RSV A); assay: BLI
T12 construct: also called RSV F A

[1] = target: RSV A fusion glycoprotein (F), virus of the neutralisation assays of Tables 54 and 57 (RSV A); assay: cell-based or functional assay
RSV-B F = target: T13, RSV-B F (RSV B); assay: BLI
T13 construct: also called RSV F B

[2] = target: fusion glycoprotein (F) of MPV A1/6621 (metapneumovirus A1/6621); assay: cell-based or functional assay
DS-Cav1 RSV F [3] = target: DS-Cav1 RSV F (respiratory syncytial virus (RSV); …, UniProt P13843 26-513); assay: ELISA on RSV-F Ds-Cav1, 1 ug/ml
[4] = target: T14, MPV fusion glycoprotein with the D280N mutation (MPV-F N280) (metapneumovirus); assay: biolayer interferometry (BLI), rIgG1 with M428L/N434S
T14 construct: also called MPV F D280N; MPV-F D280N

[5] = target: T15, MPV fusion glycoprotein without the D280N mutation (MPV-F D280) (metapneumovirus); assay: as above
T15 construct: also called MPV F Non-D280N; MPV-F wt

[6] = target: RSV fusion glycoprotein (RSV-F) (respiratory syncytial virus); assay: as above
DS-Cav1 RSV F [7] = target: T16, DS-Cav1 RSV F (respiratory syncytial virus); assay: ELISA on DS-Cav1 RSV F
T16 construct: also called DC-VCav1

[8] = target: fusion glycoprotein (F) of the RSV used in the GFP-based neutralization assay of Table 23 (respiratory syncytial virus); assay: cell-based or functional assay
[9] = target: fusion glycoprotein (F) of the MPV (non-D280N) used in the GFP-based neutralization assay of Table 23 (metapneumovirus); assay: cell-based or functional assay

B1: MPK176-v1.3 (antibody, V domains shown)
VH: QVQLVQSGAEVKKPGASVRVSCKASGYTLTAYGISWVRQAPGQGLEWMGWISPKHGNTHYAQRFQGRVTMTTDTSTSTAYMELRSLRPDDTAVYFCAREGVDIMAVPWYFDYWGQGTLVAVSS
VL: SYVLTQPPSVSVAPGQTARISCGGNNIGSKSVHWYQQKPGQAPVVVVYDDSKRPSGIPERFSGSNSGNTATLTISGVEAGDEADYFCQVWDSATDHWVFGGGTKLTVL
B1 was tested, and the “% binding” value (RSV F B S443P) was 33.8%, the “% binding” value (RSV F B K68N-N208S) was 57.9% and the “% binding” value (RSV F B N208D) was 53.6%. The “% binding” value (RSV F B K68N-N201S) was 60%, the “% binding” value (RSV F B N208S) was 60.4% and the “% binding” value (RSV F B, B Ref) was 39.9%. The “% binding” value (RSV F B N201S) was 60.2%, the “% binding” value (RSV F A G446E) was 0.017% and the “% binding” value (RSV F A L203I) was 56.1%. For the same binder, the “% binding” value (RSV F A, A2 Ref) was 78.1%, the “% binding” value (RSV F A S443P-K445N) was 0.036% and the Kd (RSV-A F) was 0.136 nM. For the same binder, the “IC50, neutralization of RSVA” value [1] was 0.00394 µg/mL and the Kd (RSV-B F) was 0.0256 nM.

B2: MPH12-v1 (VH C111/C112.2 variant of Tables 18 and 19) (antibody, V domains shown)
VH: QVQLVESGGGLVKPGGSLRLSCVASGFTFSGFYMKWIRQAPGKGLEWVSSISASGSYTNYADSVEGRFTVSRDNAKNSLFLLMSSLRAEDTAVYYCARGDSYSGASASHGEFFHKWGQGTLVTVSS
VL: QSVLTQPPSVSGAPGQRVTISCTGSDSNIGADFDVHWYQQLPGTAPKLLIYGNINRPSGVPDRFSGSRSGTSAFLAITRLQAEDEADYYCQSYDRSLHYVFGAGTKVTVL
B2 was tested, and the “MPV IC50 (nM), neutralization of MPV A1/6621” value [2] was 5.87 nM and the “EC50 (read off the curve)” value (DS-Cav1 RSV F [3]) was ~0.1 µg/mL.

B3: MPH12-v16 (VH-FRGL-S63A/VL-D25S) (antibody, V domains shown)
VH: B2 VH with V23A, S63A, V70I, F80Y, L82Q, S84N, S103C, S108C
VL: B2 VL with D26S
notes: also called MPH12 VH-FRGL-S63A / MPH12 VL-D25S
B3 showed a Kd [4] of 0.54 nM, a Kd [5] of 0.038 nM and a Kd [6] of 0.41 nM. For the same binder, the EC50 (DS-Cav1 RSV F [7]) was 0.0156 µg/mL, the “RSV IC 50 (ng/mL), GFP-based in vitro neutralization” value [8] was 50.3 ng/mL and the “MPV IC50 (ng/mL), GFP-based in vitro neutralization” value [9] was 26.8 ng/mL.

B4: MPH12-v28 (VH-FRGL-S63A/VL-S26A) (antibody, V domains shown)
VH: B2 VH with V23A, S63A, V70I, F80Y, L82Q, S84N, S103C, S108C
VL: B2 VL with S27A
notes: also called MPH12 VH-FRGL-S63A / MPH12 VL-S26A
Work on B4 yielded a Kd [4] of 0.74 nM, a Kd [5] of 0.045 nM and a Kd [6] of 0.38 nM. The EC50 (DS-Cav1 RSV F [7]) was 0.0322 µg/mL, the “RSV IC 50 (ng/mL), GFP-based in vitro neutralization” value [8] was 59.4 ng/mL and the “MPV IC50 (ng/mL), GFP-based in vitro neutralization” value [9] was 26.3 ng/mL.

B5: MPH12-v2 (VH C111/C112.2 variant of Tables 18 and 19) (antibody, V domains shown)
VH: B2 VH with S103A, S108A
VL: B2 VL
In the case of B5, the “MPV IC50 (nM), neutralization of MPV A1/6621” value [2] is reported as 0.552 nM and the “EC50 (read off the curve)” value (DS-Cav1 RSV F [3]) is reported as ~0.1 µg/mL.
